Measured values from US20250057951A1, “DISCERNIBLE CELL SURFACE PROTEIN VARIANTS OF CD117 FOR USE IN CELL THERAPY” (UNIVERSITÄT BASEL, priority 2021, published 2025).
Values belong to the molecule of their own block, whether it stands above or below them.

How the values were obtained:
[1] = test system: CD117; assay: Blocking of SCF-induced CD117 phosphorylation (Tyr719 ELISA), wild type TF-1 cells; format: cell-based, human; conditions: 0.5 ug/mL antibody or 500 nM avapritinib; 100 ng/ml SCF 5 minutes
Description: (§1) SCF-dependent phosphorylation is another function of CD117. SCF-dependent phosphorylation was measured using TF-1 cells expressing CD117 (as shown in previous experiments). TF-1 cells were seeded at a concentration of 1 million cells/ml in 1 ml of Medium (RPMI1640 supplemented with GlutaMAX+10% heat inactivated FBS) in a 6-well plate. Cells were treated with 0.5 ug/mL antibody or 500 nM avapratinib. Cells were then treated with 100 ng/ml recombinant human SCF (1 mg/ml PeproGMP® Recombinant Human SCF) for 5 minutes, before cell collection. Cells were washed with ice-cold PBS, before resuspending cells in 250 μL Lysis Buffer (Lysis buffer from Signaling containing Protease Inhibitor and Phosphatase Inhibitor). Cells were flash frozen in liquid nitrogen and thawed at 37° C. twice, before freezing them at −80° C. until further usage. Undiluted samples were thawed and processed according to the manufacturers protocol for the PathScan® Phospho-c-Kit (Tyr719) Sandwich ELISA Kit (Cell Signaling). Absorbance (OD_450 nm) was assessed using the Envision (Perkin Elmer).
(§2) TF-1 cells (wild type, and variants E73K, E73Y, D121K, S123F and S123K of CD117) were seeded at a concentration of 1 million cells/mL in 2 ml of Medium (RPMI1640 supplemented with GlutaMAX+10% heat inactivated FBS) in a 6-well plate. Cells were pre-treated with 0.5 μg/ml of antibodies Refmab #1-Ernie or Refmab #1-Bert for 30 minutes, before adding 100 ng/ml recombinant human SCF (1 mg/mL PeproGMP® Recombinant Human SCF) for 5 minutes. Cells were collected, washed once with ice-cold PBS and resuspended in 500 μL Lysis Buffer (Lysis buffer from Signaling containing Protease Inhibitor and Phosphatase Inhibitor). Cells were then flash frozen in liquid nitrogen and thawed at 37° C. twice, before freezing them at −80° C. until further usage. Undiluted samples were thawed and processed according to the manufacturers protocol for the PathScan Phospho-c-Kit (Tyr719) Sandwich ELISA Kit (Cell Signaling) or the Human c-Kit (CD117) ELISA Kit (Abcam). Absorbance (OD_450 nm) was assessed using the Envision (Perkin Elmer).

[2] = test system: wild type TF-1 cells; assay: Inhibition of SCF-dependent proliferation, wild type TF-1 cells; format: cell-based, human; conditions: 100 ng/ml SCF; increasing concentrations; 3 days
Description: (§3) SCF-dependent proliferation is another function of CD117. SCF-dependent proliferation was measured as follows: TF-1 cells were seeded at a cell concentration of 150 000 cells/ml in sterile, white cell culture treated plates in RPMI Media+10% FCS. Cells were treated with 100 ng/ml of SCF and a titration of various CD117 antibodies or an isotype control antibody at different concentrations. After 3 days of incubation a CellTiter-Glo 2.0 assay (Promega) was performed and luminescence was read in a luminometer (e.g. Envision or Phera Star plate readers).
(§4) Next, proliferation of the variants was tested with increasing concentrations of RefMab #1 at a constant concentration of SCF (100 ng/ml). TF-1 cells were seeded at a cell concentration of 150 000 cells/ml in sterile, white cell culture treated plates with transparent bottom in RPMI+GlutaMax+10% FCS and a fix concentration of 100 ng/ml SCF in the media, Cells were treated with different concentrations of RefMab #1. After 3 days of incubation a CellTiter-Glo 2,0 assay (Promega) was performed, luminescence was read in a luminometer (Envision plate reader).

[3] = test system: variants of CD117; assay: Blocking of SCF-induced CD117 phosphorylation (Tyr719 ELISA), TF-1 cells with CD117 variants; format: cell-based, human; conditions: 0.5 ug/mL antibody or 500 nM avapritinib; 100 ng/ml SCF 5 minutes
Description: as §1, §2

[4] = test system: TF-1 cells with knock-ins of CD117 variants; assay: Inhibition of SCF-dependent proliferation, TF-1 cells with CD117 variant knock-in; format: cell-based, human; conditions: 100 ng/ml SCF; increasing concentrations; 3 days; E73K; all variants tested
Description: as §3
CD117 wild-type TF-1 cells were compared to TF1 cells with a E73K knock in. […] Both KI1 and KI2 were obtained upon sorting the edited TF1 cells using the SONY MA900, removing any wild-type and knock out cells from the final subsets, thus yielding high purity of knock in.
as §4

[5] = biological target: T1, human wild-type CD117 (human, UniProt P10721 26-976); assay: flow cytometry, HEK-293T with wt CD117 vs vector alone, IgG at 0.125 µg/mL
T1 construct: also called wt CD117; KIT
Description: Binding of the antibodies to the transfected cells and the optimal assay conditions were evaluated in 384-well format. Detection of cellular expression was measured via high-throughput flow cytometry. Serial dilutions of each antibody were tested for immunoreactivity against cells expressing CD117 or vector alone. The optimal screening concentration for each antibody was determined based on the raw signal values and signal-to-background calculations. Each point represents the mean of four replicates.

[6] = biological target: T1, human wild-type CD117; assay: flow cytometry, HEK-293T with wt CD117 vs vector alone, Fab at 1.00 µg/mL
[7] = test system: Refmab #3; assay: Octet: binding of CD117 variants to Refmab #3; conditions: qualitative Octet analysis
Description: A more sophisticated analysis of binding to the elected variants was performed with antibody Refmab #1. Binding of Refmab #1 to wt and variants (analyte) was measured in an Octet system RED96e or R8 at 25° C. with shaking at 1,000 rpm using 1× kinetic buffer (Sartorius, PN: 18-1105). First, the elected variants were screened for their ability to bind Refmab #1 using three different concentrations of analytes. Antibody Refmab #1 was captured by Anti-Human Fc capture biosensor (AHC) (Sartorius, PN: 18-5060) for 300 s at 0.5 to 1 μg/mL. As an analyte, human CD117 wt and variants, containing only domains 1, 2 and 3 (CD117 D1-2-3), was titrated at 500 nM, 50 nM and 5 nM. Association and dissociation of the analyte to Refmab #1 was monitored for 300 s and 900 s, respectively. Reference subtraction was performed against buffer only wells. AHC tips were regenerated using 10 mM Gly-HCl pH 1.7. Data were analyzed using the Octet Data Analysis software HT 12.0. Data were fitted (when possible) to a 1:1 binding model. Kinetic rates ka and […] globally fitted. Binding level of the elected variants were compared to wild type and are shown as percent in FIG. 7. For this qualitative analysis, the binding level of the top analyte concentration at end of the association step was used.
A similar experiment to that in Example 7 was performed, but utilizing Refmab's #2 and #3.

[8] = biological target: T2, Biotinylated Avitag-hSCF (human, UniProt P21583 26-190, limits assumed, biotinylated Avitag); assay: BLI (Octet), steady state: biotinylated SCF on streptavidin biosensor, CD117 D1-2-3 variant as analyte
T2 construct: Bought reagent; also called hSCF (Acros Biosystems SCF-H82E1)
T2 sequence (P21583 26-190 limits assumed): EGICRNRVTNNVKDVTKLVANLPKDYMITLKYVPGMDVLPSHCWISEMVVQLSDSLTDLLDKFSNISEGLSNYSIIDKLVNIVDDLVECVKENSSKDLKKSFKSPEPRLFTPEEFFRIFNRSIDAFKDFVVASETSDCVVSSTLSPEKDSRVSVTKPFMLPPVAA
Description: Domains 4 and 5 were used as a negative, non-binding control.
Association was monitored for 300 s and dissociation for 600 s. […] Reference subtraction was performed against buffer only wells. Biosensors were not regenerated and a new set of SA biosensors was used for each analyte. Data were analyzed using the Octet Data Analysis software HT 12.0. Steady state data analysis was performed due to the fast on/off nature of the interaction.

Chain of Refmab #3 (as listed by the source): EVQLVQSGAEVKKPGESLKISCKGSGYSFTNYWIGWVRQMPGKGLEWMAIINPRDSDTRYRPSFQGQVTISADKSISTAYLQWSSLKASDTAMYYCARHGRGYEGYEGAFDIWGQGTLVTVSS
Chain of Refmab #3 (as listed by the source): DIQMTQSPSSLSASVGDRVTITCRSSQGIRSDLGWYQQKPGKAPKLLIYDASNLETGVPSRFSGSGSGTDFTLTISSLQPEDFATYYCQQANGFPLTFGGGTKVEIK

Signal:Background [5]: 7 ratio to background
B1: Refmab #4 (antibody, V domains shown)
VH: EVQLVESGGGLVQPGGSLRLSCAASGFSISVYMMHWVRQAPGKGLEWVASIYPYSGYTYYADSVKGRFTISADTSKNTAYLQMNSLRAEDTAVYYCARYVYHALDYWGQGTLVTVSS
VL: DIQMTQSPSSLSASVGDRVTITCRASQSVSSAVAWYQQKPGKAPKLLIYSASSLYSGVPSRFSGSRSGTDFTLTISSLQPEDFATYYCQQWAVHSLITFGQGTKVEIKR

Signal:Background [5]: 10 ratio to background
B3: Refmab #5 (antibody, V domains shown)
VH: EVRLVESEGGLVQPRSSMKLSCTASGFTFSDYYMAWVRQVPEKGLEWVANINYDGSSTYYLDSLKSRFIISRDNAKNILYLQMSSLKSEDTATYYCARGDYYGTTYWYFDVWGTGTTVTVSS
VL: DIQMTQTTSSLSASLGDRVTISCRASQDISNYLNWYQQKPDGTVKLLIYYTSRLQSGVPSRFSGSGSGTDYSLTISNLEQEDIATYFCQQGKKLWSFGGGTKLEIKR

binding to Refmab #3 compared to wild type CD117 [7]: strong decrease in binding
B5: S261V (receptor)
extracellular domains 1, 2 and 3: QPSVSPGEPSPPSIHPGKSDLIVRVGDEIRLLCTDPGFVKWTFEILDETNENKQNEWITEKAEATNTGKYTCTNKHGLSNSIYVFVRDPAKLFLVDRSLYGKEDNDTLVRCPLTDPEVTNYSLKGCQGKPLPKDLRFIPDPKAGIMIKSVKRAYHRLCLHCSVDQEGKSVLSEKFILKVRPAFKAVPVVSVSKASYLLREGEEFTVTCTIKDVSSSVYSTWKRENSQTKLQEKYNVWHHGDFNYERQATLTISSARVNDSGVFMCYANNTFGSANVTTTLEVVD
notes: not in the list MOLECULES; also called human CD117 D1-2-3 variant S261V
binding result [8]: no binding (tested: 1000 nM (not on the sheet))

Second part, the molecule before the results:

Molecule: Cn1cc(-c2cc3c(N4CCN(c5ncc([C@@](C)(N)c6ccc(F)cc6)cn5)CC4)ncnn3c2)cn1 [avapritinib, reference compound]
blocking of SCF-induced phosphorylation, wild type cells [1]: blocked | effect on SCF-dependent proliferation of wild type TF-1 cells [2]: no proliferation | blocking of SCF-induced phosphorylation, E73K variant [3]: still blocks | effect on SCF-dependent proliferation of TF-1 cells with CD117 variants [4]: no proliferation

B2: Refmab #4 Fab fragment (Fab, V domains shown)
VH: B1 VH
VL: B1 VL
Signal:Background [6]: 6 ratio to background

B4: Refmab #5 Fab fragment (Fab, V domains shown)
VH: B3 VH
VL: B3 VL
Signal:Background [6]: 7 ratio to background
